Where two headings read alike, the source gives them in different places. Square brackets hold non-standard residues; d marks the D form. Ends that are not written are not given here. Aib = CC(C)(N)C(=O)O
What was measured:
Test in all cases: cell-based or functional assay
[1] = molecular target: human GLP-1 receptor (human) (UniProt P43220)
[2] = molecular target: human glucagon receptor (human) (UniProt P47871)
[3] = molecular target: human glucagon receptor (human, UniProt P47871 26-477)
[4] = molecular target: T1, human GLP-1 receptor (human, UniProt P43220 24-463)
[5] = molecular target: T2, human GIP receptor (human, UniProt P48546 22-466)
T2 sequence (looked up): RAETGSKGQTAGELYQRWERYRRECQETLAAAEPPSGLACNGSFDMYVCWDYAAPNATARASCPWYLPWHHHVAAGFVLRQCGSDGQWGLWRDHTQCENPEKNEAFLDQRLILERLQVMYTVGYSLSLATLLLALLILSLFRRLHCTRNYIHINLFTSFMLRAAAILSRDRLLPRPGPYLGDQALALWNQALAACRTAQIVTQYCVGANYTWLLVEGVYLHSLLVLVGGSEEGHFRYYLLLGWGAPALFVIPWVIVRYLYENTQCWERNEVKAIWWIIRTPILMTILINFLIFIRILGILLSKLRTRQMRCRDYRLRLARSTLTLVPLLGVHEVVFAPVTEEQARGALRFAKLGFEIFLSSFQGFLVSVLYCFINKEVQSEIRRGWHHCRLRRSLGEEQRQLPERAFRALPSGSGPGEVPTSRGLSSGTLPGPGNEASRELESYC

[6] = molecular target: T1, human GLP-1 receptor; remark: listed apart in the source
Target sequence in this assay (P43220 24-463): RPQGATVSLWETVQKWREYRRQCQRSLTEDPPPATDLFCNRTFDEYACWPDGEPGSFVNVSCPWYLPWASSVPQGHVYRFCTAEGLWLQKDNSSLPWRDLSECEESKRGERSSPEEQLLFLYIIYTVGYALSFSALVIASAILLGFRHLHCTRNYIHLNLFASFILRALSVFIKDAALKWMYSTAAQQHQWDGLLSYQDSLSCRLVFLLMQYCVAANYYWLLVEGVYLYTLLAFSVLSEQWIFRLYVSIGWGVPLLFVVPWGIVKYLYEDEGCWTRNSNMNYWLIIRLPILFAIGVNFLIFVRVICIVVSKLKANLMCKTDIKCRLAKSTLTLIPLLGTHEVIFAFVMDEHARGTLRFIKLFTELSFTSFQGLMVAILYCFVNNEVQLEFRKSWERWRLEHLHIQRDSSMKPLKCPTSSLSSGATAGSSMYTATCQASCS

[7] = molecular target: T2, human GIP receptor; remark: listed apart in the source

Sequence of human glucagon receptor (P47871 26-477): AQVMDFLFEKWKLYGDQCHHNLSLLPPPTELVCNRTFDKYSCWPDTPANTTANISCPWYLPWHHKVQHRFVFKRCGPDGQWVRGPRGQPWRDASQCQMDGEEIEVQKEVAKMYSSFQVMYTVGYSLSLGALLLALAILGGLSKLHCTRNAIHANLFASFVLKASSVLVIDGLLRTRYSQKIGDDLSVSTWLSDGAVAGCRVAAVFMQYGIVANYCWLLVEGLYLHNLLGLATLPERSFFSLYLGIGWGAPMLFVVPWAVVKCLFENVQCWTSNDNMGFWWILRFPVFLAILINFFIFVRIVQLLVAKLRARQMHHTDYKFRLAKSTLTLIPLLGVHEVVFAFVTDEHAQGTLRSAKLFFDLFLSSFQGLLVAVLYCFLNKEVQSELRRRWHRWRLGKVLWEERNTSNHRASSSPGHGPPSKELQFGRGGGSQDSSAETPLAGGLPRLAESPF
Sequence of human GLP-1 receptor (human) (P43220 24-463): as the sequence (P43220 24-463) above
Sequence of human glucagon receptor (human) (P47871 26-477): as the sequence (P47871 26-477) above

Molecule: exendin-4 (peptide)
- EC50 hGLP-1 R [pM] (cAMP formation, HTRF, HEK-293 cells) [1]: 0.4 pM
- EC50 hGlucagon R [pM] (cAMP formation, HTRF, HEK-293 cells) [2]: > 1e+07 pM

B1: SEQ ID NO: 10 (peptide)
peptide: Y[Aib]EGTFTSDLSKLLEEEAVRLFIEWLKAGGPSSGAPPPS-NH2
modifications: N-terminus assumed
SMILES: CC[C@H](C)[C@H](NC(=O)[C@H](Cc1ccccc1)NC(=O)[C@H](CC(C)C)NC(=O)[C@H](CCCNC(=N)N)NC(=O)[C@@H](NC(=O)[C@H](C)NC(=O)[C@H](CCC(=O)O)NC(=O)[C@H](CCC(=O)O)NC(=O)[C@H](CCC(=O)O)NC(=O)[C@H](CC(C)C)NC(=O)[C@H](CC(C)C)NC(=O)[C@H](CCCCN)NC(=O)[C@H](CO)NC(=O)[C@H](CC(C)C)NC(=O)[C@H](CC(=O)O)NC(=O)[C@H](CO)NC(=O)[C@@H](NC(=O)[C@H](Cc1ccccc1)NC(=O)[C@@H](NC(=O)CNC(=O)[C@H](CCC(=O)O)NC(=O)C(C)(C)NC(=O)[C@@H](N)Cc1ccc(O)cc1)[C@@H](C)O)[C@@H](C)O)C(C)C)C(=O)N[C@@H](CCC(=O)O)C(=O)N[C@@H](Cc1c[nH]c2ccccc12)C(=O)N[C@@H](CC(C)C)C(=O)N[C@@H](CCCCN)C(=O)N[C@@H](C)C(=O)NCC(=O)NCC(=O)N1CCC[C@H]1C(=O)N[C@@H](CO)C(=O)N[C@@H](CO)C(=O)NCC(=O)N[C@@H](C)C(=O)N1CCC[C@H]1C(=O)N1CCC[C@H]1C(=O)N1CCC[C@H]1C(=O)N[C@@H](CO)C(N)=O
- EC50 hGLUC R [pM] (cAMP formation, HTRF, HEK-293 cells) [3]: 137000 pM
- EC50 hGLP-1 R [pM] (cAMP formation, HTRF, HEK-293 cells) [4]: 1 pM
- EC50 hGIP R [pM] (cAMP formation, HTRF, HEK-293 cells) [5]: 1.3 pM

B2: SEQ ID NO: 11 (peptide)
peptide: Y[Aib]EGTFTSDLSILLEEEAVRLFIEWLKAGGPSSGAPPPS-NH2
modifications: N-terminus assumed
SMILES: CC[C@H](C)[C@H](NC(=O)[C@H](CO)NC(=O)[C@H](CC(C)C)NC(=O)[C@H](CC(=O)O)NC(=O)[C@H](CO)NC(=O)[C@@H](NC(=O)[C@H](Cc1ccccc1)NC(=O)[C@@H](NC(=O)CNC(=O)[C@H](CCC(=O)O)NC(=O)C(C)(C)NC(=O)[C@@H](N)Cc1ccc(O)cc1)[C@@H](C)O)[C@@H](C)O)C(=O)N[C@@H](CC(C)C)C(=O)N[C@@H](CC(C)C)C(=O)N[C@@H](CCC(=O)O)C(=O)N[C@@H](CCC(=O)O)C(=O)N[C@@H](CCC(=O)O)C(=O)N[C@@H](C)C(=O)N[C@H](C(=O)N[C@@H](CCCNC(=N)N)C(=O)N[C@@H](CC(C)C)C(=O)N[C@@H](Cc1ccccc1)C(=O)N[C@H](C(=O)N[C@@H](CCC(=O)O)C(=O)N[C@@H](Cc1c[nH]c2ccccc12)C(=O)N[C@@H](CC(C)C)C(=O)N[C@@H](CCCCN)C(=O)N[C@@H](C)C(=O)NCC(=O)NCC(=O)N1CCC[C@H]1C(=O)N[C@@H](CO)C(=O)N[C@@H](CO)C(=O)NCC(=O)N[C@@H](C)C(=O)N1CCC[C@H]1C(=O)N1CCC[C@H]1C(=O)N1CCC[C@H]1C(=O)N[C@@H](CO)C(N)=O)[C@@H](C)CC)C(C)C
- EC50 hGLUC R [pM] (cAMP formation, HTRF, HEK-293 cells) [3]: 529000 pM
- EC50 hGLP-1 R [pM] (cAMP formation, HTRF, HEK-293 cells) [4]: 1.4 pM
- EC50 hGIP R [pM] (cAMP formation, HTRF, HEK-293 cells) [5]: 0.9 pM

Molecule: YAEGTFTSDVSIYLEGQAAKEFIAWLVKGR (ends and bridges not checked) [Tyr(1)Ile(12)-GLP1]
- EC50 hGLP-1 R [pM] (cAMP formation, HTRF, HEK-293 cells) [6]: 5 pM
- EC50 hGIP R [pM] (cAMP formation, HTRF, HEK-293 cells) [7]: 3660 pM

B3: SEQ ID NO: 9 (peptide)
peptide: Y[Aib]EGTFTSDLSKLLDKEAVRLFIEWLKAGGPSSGAPPPS-NH2
modifications: N-terminus assumed
SMILES: CC[C@H](C)[C@H](NC(=O)[C@H](Cc1ccccc1)NC(=O)[C@H](CC(C)C)NC(=O)[C@H](CCCNC(=N)N)NC(=O)[C@@H](NC(=O)[C@H](C)NC(=O)[C@H](CCC(=O)O)NC(=O)[C@H](CCCCN)NC(=O)[C@H](CC(=O)O)NC(=O)[C@H](CC(C)C)NC(=O)[C@H](CC(C)C)NC(=O)[C@H](CCCCN)NC(=O)[C@H](CO)NC(=O)[C@H](CC(C)C)NC(=O)[C@H](CC(=O)O)NC(=O)[C@H](CO)NC(=O)[C@@H](NC(=O)[C@H](Cc1ccccc1)NC(=O)[C@@H](NC(=O)CNC(=O)[C@H](CCC(=O)O)NC(=O)C(C)(C)NC(=O)[C@@H](N)Cc1ccc(O)cc1)[C@@H](C)O)[C@@H](C)O)C(C)C)C(=O)N[C@@H](CCC(=O)O)C(=O)N[C@@H](Cc1c[nH]c2ccccc12)C(=O)N[C@@H](CC(C)C)C(=O)N[C@@H](CCCCN)C(=O)N[C@@H](C)C(=O)NCC(=O)NCC(=O)N1CCC[C@H]1C(=O)N[C@@H](CO)C(=O)N[C@@H](CO)C(=O)NCC(=O)N[C@@H](C)C(=O)N1CCC[C@H]1C(=O)N1CCC[C@H]1C(=O)N1CCC[C@H]1C(=O)N[C@@H](CO)C(N)=O
- EC50 hGLUC R [pM] (cAMP formation, HTRF, HEK-293 cells) [3]: 149000 pM
- EC50 hGLP-1 R [pM] (cAMP formation, HTRF, HEK-293 cells) [4]: 2.2 pM
- EC50 hGIP R [pM] (cAMP formation, HTRF, HEK-293 cells) [5]: 13 pM

B4: SEQ ID NO: 8 (peptide)
peptide: Y[Aib]EGTFTSDLSKLLEKEAVRLFIEWLKAGGPSSGAPPPS-NH2
modifications: N-terminus assumed
SMILES: CC[C@H](C)[C@H](NC(=O)[C@H](Cc1ccccc1)NC(=O)[C@H](CC(C)C)NC(=O)[C@H](CCCNC(=N)N)NC(=O)[C@@H](NC(=O)[C@H](C)NC(=O)[C@H](CCC(=O)O)NC(=O)[C@H](CCCCN)NC(=O)[C@H](CCC(=O)O)NC(=O)[C@H](CC(C)C)NC(=O)[C@H](CC(C)C)NC(=O)[C@H](CCCCN)NC(=O)[C@H](CO)NC(=O)[C@H](CC(C)C)NC(=O)[C@H](CC(=O)O)NC(=O)[C@H](CO)NC(=O)[C@@H](NC(=O)[C@H](Cc1ccccc1)NC(=O)[C@@H](NC(=O)CNC(=O)[C@H](CCC(=O)O)NC(=O)C(C)(C)NC(=O)[C@@H](N)Cc1ccc(O)cc1)[C@@H](C)O)[C@@H](C)O)C(C)C)C(=O)N[C@@H](CCC(=O)O)C(=O)N[C@@H](Cc1c[nH]c2ccccc12)C(=O)N[C@@H](CC(C)C)C(=O)N[C@@H](CCCCN)C(=O)N[C@@H](C)C(=O)NCC(=O)NCC(=O)N1CCC[C@H]1C(=O)N[C@@H](CO)C(=O)N[C@@H](CO)C(=O)NCC(=O)N[C@@H](C)C(=O)N1CCC[C@H]1C(=O)N1CCC[C@H]1C(=O)N1CCC[C@H]1C(=O)N[C@@H](CO)C(N)=O
- EC50 hGLUC R [pM] (cAMP formation, HTRF, HEK-293 cells) [3]: 79000 pM
- EC50 hGLP-1 R [pM] (cAMP formation, HTRF, HEK-293 cells) [4]: 1.2 pM
- EC50 hGIP R [pM] (cAMP formation, HTRF, HEK-293 cells) [5]: 2.3 pM

From US20150164996A1 (Sanofi, published 2015)
